Laboratory results from article PMC6191539, “NadA3 Structures Reveal Undecad Coiled Coils and LOX1 Binding Regions Competed by Meningococcus B Vaccine-Elicited Human Antibodies” (mBio, 2018).

Target: T1, full-length human LOX-1 fused to yellow fluorescent protein, expressed on CHO-K1 cells (human, UniProt P78380 1-273)
T1 construct: LOX-1 (low-density oxidized lipoprotein lectin-like receptor 1), human, full length, on transfected CHO-K1 cells; pEYFP-N1 usually places the YFP at the C-terminus of the insert (surmise); also called low-density oxidized lipoprotein lectin-like receptor 1; LOX-1-expressing cells; source: CHO-K1 cells, transiently transfected (pEYFP-N1 vector), on live cells
Test: flow cytometry on cells; CHO-K1 cells transiently expressing human LOX-1-YFP mixed with NadA3 protein (200 µg/ml) for 30 min at 37°C; detected with mouse polyclonal anti-NadA3 and APC-conjugated secondary antibody
Conditions: one partner purified

B1: NadA3 24–170 K68A K69A D70A mutant (domain or fragment)
chain: ATNDDDVKKAATVAIAAAYNNGQEINGFKAGETIYDIDEDGTITAAAATAADVEADDFKGLGLKKVVTNLTKTVNENKQNVDAKVKAAESEIEKLTTKLADTDAALADTDAALDATTNALNKLGENITTFAEETKTNIVKIDEKLEA
notes: NadA3, N. meningitidis serogroup B strain 2996, UniProt Q8KH85, residues 24-170 with K68A, K69A and D70A
With B1 as the binder, how does the “percent doubly positive cells (LOX-1 and NadA)” value read?
Its value is 49.8%.
